The assay deals with Orc2-GFP (Drosophila (endogenous in salivary glands)) (UniProt Q24168). Kind of assay: FRET or BRET; acceptor photobleaching (543 nm laser) of Rbf1N-RFP (mCherry) with Orc2-GFP (EGFP) as donor, in chromatin-washed, formaldehyde-fixed salivary gland nuclei; ratio of bleached to non-bleached areas in three nuclei.
UniProt Q24168, sequence (Q24168 whole entry): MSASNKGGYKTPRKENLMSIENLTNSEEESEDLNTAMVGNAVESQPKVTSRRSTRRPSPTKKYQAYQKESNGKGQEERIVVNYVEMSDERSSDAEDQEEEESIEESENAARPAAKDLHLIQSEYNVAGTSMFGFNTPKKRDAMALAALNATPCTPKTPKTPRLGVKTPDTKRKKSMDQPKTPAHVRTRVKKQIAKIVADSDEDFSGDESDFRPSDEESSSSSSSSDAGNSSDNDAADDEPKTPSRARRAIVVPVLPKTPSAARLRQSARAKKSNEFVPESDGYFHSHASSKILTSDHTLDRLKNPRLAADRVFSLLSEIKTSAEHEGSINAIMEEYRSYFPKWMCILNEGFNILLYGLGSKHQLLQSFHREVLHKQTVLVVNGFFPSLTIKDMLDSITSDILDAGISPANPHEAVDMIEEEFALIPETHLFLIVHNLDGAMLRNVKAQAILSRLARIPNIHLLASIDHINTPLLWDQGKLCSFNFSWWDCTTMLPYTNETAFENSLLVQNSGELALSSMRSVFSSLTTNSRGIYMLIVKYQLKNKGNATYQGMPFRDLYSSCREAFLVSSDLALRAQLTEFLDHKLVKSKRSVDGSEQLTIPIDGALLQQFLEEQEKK

As for “Rbf1N-RFP (Rbf1 amino acids 1–345 with C-terminal V5 and mCherry, Lys241Glu) (domain or fragment)”, the fold increase of GFP fluorescence after RFP photobleaching was 1.5 to 2 fold.

(Values after publication PMC2475671.)
